Patent US7629132B2, “Goodpasture antigen binding protein” (priority 1999, dated 2009)

Experiments:
rGPBP = target: T1, rGPBP (Homo sapiens, UniProt Q9Y5P4); assay: In vitro phosphorylation of GP antigen-derived peptides by rGPBP; assay type: biochemical; conditions: about 200 ng yeast rGPBP, 10 nmoles peptide, γ-32P-ATP
T1 construct: made in house; host or cells: Pichia pastoris GS115
T1 sequence (Q9Y5P4 1-624): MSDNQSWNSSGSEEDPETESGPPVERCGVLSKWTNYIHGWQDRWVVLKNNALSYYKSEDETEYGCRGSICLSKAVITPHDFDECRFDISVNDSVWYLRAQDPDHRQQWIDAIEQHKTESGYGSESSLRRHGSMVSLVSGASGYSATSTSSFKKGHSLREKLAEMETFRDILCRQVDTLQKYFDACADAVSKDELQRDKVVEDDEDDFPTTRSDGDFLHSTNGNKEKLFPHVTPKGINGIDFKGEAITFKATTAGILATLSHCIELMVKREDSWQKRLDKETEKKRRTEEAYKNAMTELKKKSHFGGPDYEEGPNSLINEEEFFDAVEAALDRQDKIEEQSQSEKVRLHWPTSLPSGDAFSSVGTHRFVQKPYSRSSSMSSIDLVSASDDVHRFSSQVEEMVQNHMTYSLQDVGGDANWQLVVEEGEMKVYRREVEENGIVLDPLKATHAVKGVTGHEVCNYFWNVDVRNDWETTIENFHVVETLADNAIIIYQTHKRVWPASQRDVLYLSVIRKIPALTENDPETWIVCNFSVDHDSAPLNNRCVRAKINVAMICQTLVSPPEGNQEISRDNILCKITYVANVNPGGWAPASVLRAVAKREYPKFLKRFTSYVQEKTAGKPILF
Description: FIG. 5. Recombinant GPBP contains a serine/threonine kinase that specifically phosphorylates the N-terminal region of the human GP antigen. To assess phosphorylation, approximately 200 ng of yeast rGPBP was incubated with [γ]^32P-ATP in the absence (A and B) or presence of GP antigen-derived material (C). In (A), the mixture was subjected to reducing SDS-PAGE (10% gel) and autoradiographed. In (B), the mixture was subjected to ^32P-phosphoamino acid analysis by two-dimensional thin-layer chromatography. The dotted circles indicate the position of ninhydrin stained phosphoamino acids. In (C), the phosphorylation mixtures of the indicated GP-derived material were analyzed by SDS-PAGE (15% gel) and autoradiography (GPpep1 and GPpep1Ala^9) or immunoprecipitated with Mab 17, a monoclonal antibody that specifically recognize GP antigen from human and bovine origin, and analyzed by SDS-PAGE (12.5%) and autoradiography (rGP, GP). The relative positions of rGPBP (A), rGP antigen and the native human and bovine GP antigens (C) are indicated by arrows. The numbers and bars refer to molecular weight markers as in previous Figures. […]

GPBP = target: T2, GPBP (Homo sapiens, UniProt Q9Y5P4); assay: In vitro GPBP autophosphorylation in the presence of GPΔIII-derived peptide; assay type: biochemical; conditions: about 200 ng rGPBP, 150 μM ATP, 5 nmol peptide
T2 construct: made in house; host or cells: Pichia pastoris GS115
T2 sequence (Q9Y5P4 1-624): T1 sequence (Q9Y5P4 1-624)
Description: FIG. 20. Regulation of the GPBP by the C terminal region of GPΔIII. About 200 ng of rGPBP were in vitro phosphorylated with 150 μM ATP in the absence (lane 1) or in the presence of 5 nmol of GPΔIII-derived peptide synthesized either using Boc-(lane 2) or Fmoc-(lane 3) chemistry. The reaction mixtures were subjected to SDS-PAGE, transferred to PVDF and autoradiographed to asses autophosphorylation, and subsequently blotted with anti-FLAG monoclonal antibodies (Sigma) to determine the amount of recombinant material present (Western).
In vitro phosphorylation assays-About 200 ng of rGPBP were incubated overnight at 30° C. in 25 mM β-glycerolphosphate (pH 7.0), 0.5 mM EDTA, 0.5 mM EGTA, 8 mM MgCl2, 5 mM MnCl2, 1 mM DTT and 0.132 μM γ-^32P-ATP, in the presence or absence of 0.5-1 μg of protein substrates or 10 nmoles of synthetic peptides, in a total volume of 50 μl.
(§1) Phosphorylation studies. Phosphorylation studies were essentially done as described above (see also 3 and 12). In some experiments, the substrates were in-blot renatured and then, phosphorylated for 30 min at room temperature by overlaying 100 μl of phosphorylation buffer containing 0.5 μg of rGPBP. Digestion with V8 endopeptidase and immunoprecipitation were performed as described in (3).

[1] = Loss of PKA-inducing activity of the peptide on storage; assay type: physicochemical; conditions: long storage at low temperatures
PKA = PKA (Homo sapiens, UniProt P17612); assay: PKA phosphorylation of native GP antigen (α3(IV)NC1 domain or hexamer) in the presence of C-terminal peptides; assay type: biochemical; conditions: 0.1 μM ATP, 10 nmol peptide, purified α3(IV)NC1 domain or hexamer
Description: FIG. 16. Phosphorylation of GP alternative splicing products by PKA. In left panel, equimolecular amounts of rGP (lanes 1), rGPΔV (lanes 2), rGPΔIII (lanes 3) or rGPΔIII/IV/V (lanes 4), equivalent to 500 ng of the GP were phosphorylated at the indicated ATP concentrations. One-fifth of the total phosphorylation reaction mixture was separated by gel electrophoresis and transferred to PVDF, autoradiographed (shown) and the proteins blotted with M3/1, a specific monoclonal antibody recognizing all four species (shown) or using antibodies specific for each individual C-terminal region (not shown). […] Right panel: purified α3(IV)NC1 domain or hexamer was phosphorylated with PKA and 0.1 μM ATP in the absence (lanes 1) or in the presence of 10 nmol of peptides representing the C-terminal region of either GPΔIII (lanes 2) or GPΔIII/IV/V (lanes 3). Where indicated the phosphorylation mixtures of purified α3(IV)NC1 domain were V8 digested and immunoprecipitated with antibodies specific for the N terminus of the human α3(IV)NC1 domain (3). Bars and numbers indicate the position and sizes (kDa) of the molecular weight markers.
as §1

KGKRGDAGSPATWTTRGFVFT [GPpep1Ala^9, mutant Ser9 to Ala9 of GPpep1, residues 3-23 of the human GP antigen]
32P incorporation by rGPBP, compared with GPpep1 (rGPBP): lower ^32P incorporation

QRAHGQDLDALFVKVLRSP [Boc-based peptide]
effect on GPBP autophosphorylation (GPBP; listed as Boc-based synthetic peptides): positively influenced GPBP autophosphorylation | stability of biological activity (ability to induce PKA) on storage [1]: loses its ability to induce PKA upon long storage at low temperatures

QRAHGQDLDALFVKVLRSP [Fmoc-based peptide]
induction of GP antigen phosphorylation by PKA (PKA; listed as Fmoc-based peptides): not | effect on GPBP autophosphorylation (GPBP): inhibited GPBP autophosphorylation

QRAHGQDLDALFVKVLRSP [GPΔIII derived peptide, synthetic peptide representing the C-terminal region of GPΔIII, chemistry not specified at the place]
induction of GP antigen phosphorylation by PKA (PKA; listed as SEQ ID NO: 43): induced the phosphorylation of a single polypeptide

QRAHGQDLESLFHQL [GPΔIII/IV/V derived peptide, synthetic peptide representing the C-terminal region of GPΔIII/IV/V]
induction of GP antigen phosphorylation by PKA (PKA): induced the phosphorylation of a single polypeptide
